Patent publication US20040018971A1 (published 2004)

Tests used:
HLA-A*0201 [1] = target: T1, HLA-A*0201 (human); assay: competitive inhibition of 125I-labelled standard peptide binding to purified HLA, gel filtration
T1 construct: also called HLA-A2.1

HLA-A*0201 [2] = target: T2, HLA-A*0201 (human); assay: inhibition of 125I-labelled standard peptide binding to purified HLA, gel filtration; ratio = IC50 of standard / IC50 of test peptide
T2 construct: also called HLA-A2.1

HLA-A*0201 [3] = target: T3, HLA-A*0201 (human); assay: competition with 125I-labelled standard peptide 941.01 for purified HLA, gel filtration
T3 construct: also called HLA-A2.1

HLA-B*0702 [4] = target: HLA-B*0702 (human); assay: competition with 125I probe peptide, purified HLA
HLA-B*5101 [5] = target: HLA-B*5101 (human); assay: competition with 125I probe peptide, purified HLA
HLA-B*5301 [6] = target: HLA-B*5301 (human); assay: competition with 125I probe peptide, purified HLA
HLA-B*5401 [7] = target: HLA-B*5401 (human); assay: competition with 125I probe peptide, purified HLA
HLA-B*3501 = HLA-B*3501 (human); assay: competition with 125I probe peptide, purified HLA
HLA-B*0702 [8] = target: HLA-B*0702 (human); assay: competition vs 125I-labelled probe peptide, purified HLA, gel filtration
HLA-B*5101 [9] = target: HLA-B*5101 (human); assay: as above
HLA-B*5301 [10] = target: HLA-B*5301 (human); assay: as above
HLA-B*5401 [11] = target: HLA-B*5401 (human); assay: as above

Question: NASLSFLQDI (Synthetic peptide) [HER2/neu A02 supermotif peptide, position 68, 10 amino acids] was tested. Which “relative binding ratio (IC50 of standard peptide / IC50 of test peptide)” value (HLA-A*0201 [1]) did it give?
Answer: 0.0001 ratio

Question: RLPASPETHL [HER2/neu peptide, position 34, 10 amino acids] was tested. Which relative binding ratio (HLA-A*0201 [2]) did it give?
Answer: 0.0001 ratio to standard peptide

Question: Which “relative binding ratio (IC50 of standard peptide / IC50 of test peptide)” value (HLA-A*0201 [1]) does the source give for LVCPLHNQEV (Synthetic peptide) [HER2/neu A02 supermotif peptide, position 313, 10 amino acids] here?
Answer: 0.0002 ratio

Question: With AALCRWGLLL (also called Her2/neu.4 (10-mer)) [HER2/neu peptide, position 4, 10 amino acids] as the binder, how does the relative binding ratio (HLA-A*0201 [3]) read?
Answer: 0.001 ratio (IC50 of standard peptide / IC50 of test peptide)

Question: How did the relative binding ratio (HLA-A*0201 [3]) turn out when AARPAGATL (also called Her2/neu.1159 (9-mer)) [HER2/neu peptide, position 1159, 9 amino acids] was run?
Answer: 0.0001 ratio (IC50 of standard peptide / IC50 of test peptide)

Question: TAENPEYLGL [HER2/neu peptide, position 1242, 10 amino acids] was tested. Which relative binding ratio (HLA-A*0201 [2]) did it give?
Answer: 0.0001 ratio to standard peptide

Question: With AVLDNGDPL (also called Her2/neu.115 (9-mer)) [HER2/neu peptide, position 115, 9 amino acids] as the binder, how does the relative binding ratio (HLA-A*0201 [3]) read?
Answer: 0.0004 ratio (IC50 of standard peptide / IC50 of test peptide)

Question: With ALVTYNTDT (also called Her2/neu.270 (9-mer)) [HER2/neu peptide, position 270, 9 amino acids] as the binder, how does the relative binding ratio (HLA-A*0201 [3]) read?
Answer: 0.0001 ratio (IC50 of standard peptide / IC50 of test peptide)

Question: Which relative binding ratio (HLA-A*0201 [3]) does the source give for DLGMGAAKGL (also called Her2/neu.1089 (10-mer)) [HER2/neu peptide, position 1089, 10 amino acids] here?
Answer: 0.0001 ratio (IC50 of standard peptide / IC50 of test peptide)

Question: What does the source list for CPLHNQEVTI (analog peptide) [Her2/neu.315.I10]?
Answer: IC50 (HLA-B*0702 [4]): 458 nM; IC50 (HLA-B*5101 [5]): 42 nM; IC50 (HLA-B*5301 [6]): 274 nM; IC50 (HLA-B*5401 [7]): 556 nM

Question: How did the “relative binding ratio (IC50 of standard peptide / IC50 of test peptide)” value (HLA-A*0201 [1]) turn out when LVSEFSRMA (Synthetic peptide) [HER2/neu A02 supermotif peptide, position 972, 9 amino acids] was run?
Answer: 0.0001 ratio

Question: ALLPPGAAST (also called Her2/neu.14 (10-mer)) [HER2/neu peptide, position 14, 10 amino acids] was tested. Which relative binding ratio (HLA-A*0201 [3]) did it give?
Answer: 0.0001 ratio (IC50 of standard peptide / IC50 of test peptide)

Question: What does the source list for FPHQALLHTA (analog peptide) [Her2/neu.488.F1]?
Answer: IC50 (HLA-B*0702 [4]): 393 nM; IC50 (HLA-B*3501): 379 nM; IC50 (HLA-B*5101 [5]): 4230 nM; IC50 (HLA-B*5401 [7]): 1.3 nM

Question: Which “relative binding ratio (IC50 of standard peptide / IC50 of test peptide)” value (HLA-A*0201 [1]) does the source give for NVKIPVAIKV (Synthetic peptide) [HER2/neu A02 supermotif peptide, position 745, 10 amino acids] here?
Answer: 0.0001 ratio

Question: For DLAARNVLV (also called Her2/neu.845 (9-mer)) [HER2/neu peptide, position 845, 9 amino acids], which relative binding ratio (HLA-A*0201 [3]) is on record?
Answer: 0.0002 ratio (IC50 of standard peptide / IC50 of test peptide)

Question: SIISAVVGIL [HER2/neu peptide, position 653, 10 amino acids] was tested. Which relative binding ratio (HLA-A*0201 [2]) did it give?
Answer: 0.0002 ratio to standard peptide

Question: With NVLVKSPNHV (Synthetic peptide) [HER2/neu A02 supermotif peptide, position 850, 10 amino acids] as the binder, how does the “relative binding ratio (IC50 of standard peptide / IC50 of test peptide)” value (HLA-A*0201 [1]) read?
Answer: 0.0001 ratio

Question: For NLQVIRGRIL (Synthetic peptide) [HER2/neu A02 supermotif peptide, position 427, 10 amino acids], which “relative binding ratio (IC50 of standard peptide / IC50 of test peptide)” value (HLA-A*0201 [1]) is on record?
Answer: 0.0001 ratio

Question: MIMVKCWMI (Synthetic peptide) [HER2/neu A02 supermotif peptide, position 953, 9 amino acids] was tested. Which “relative binding ratio (IC50 of standard peptide / IC50 of test peptide)” value (HLA-A*0201 [1]) did it give?
Answer: 0.0051 ratio

B1: Her2/neu.1149.F1I11 (peptide)
peptide: FPSPREGPLPI
notes: 11-mer analog of the HER2/neu peptide starting at position 1149
Question: Which results are given for B1?
Answer: IC50 (HLA-B*0702 [8]): 190 nM; IC50 (HLA-B*5101 [9]): 262 nM; IC50 (HLA-B*5301 [10]): 5170 nM; IC50 (HLA-B*5401 [11]): 263 nM

Question: For FPTNASLSF (analog peptide) [Her2/neu.65.F1 (9-mer)], which IC50 (HLA-B*0702 [4]) is on record?
Answer: 1.1 nM

Question: And the IC50 (HLA-B*3501)?
Answer: 7.9 nM

Question: And the IC50 (HLA-B*5101 [5])?
Answer: 85 nM

Question: What about the IC50 (HLA-B*5301 [6]) of the same binder?
Answer: 6.2 nM

Question: And the IC50 (HLA-B*5401 [7])?
Answer: 556 nM

Question: Which results are given for FPTNASLSI (analog peptide) [Her2/neu.65.F1I9]?
Answer: IC50 (HLA-B*0702 [4]): 4.6 nM; IC50 (HLA-B*3501): 300 nM; IC50 (HLA-B*5101 [5]): 8.7 nM; IC50 (HLA-B*5301 [6]): 14 nM; IC50 (HLA-B*5401 [7]): 2.8 nM

Question: Which relative binding ratio (HLA-A*0201 [3]) does the source give for DIQEVQGYVL (also called Her2/neu.76 (10-mer)) [HER2/neu peptide, position 76, 10 amino acids] here?
Answer: 0.0001 ratio (IC50 of standard peptide / IC50 of test peptide)

Question: PAFSPAFDNL (Synthetic peptide) [HER2/neu A02 supermotif peptide, position 1211, 10 amino acids] was tested. Which “relative binding ratio (IC50 of standard peptide / IC50 of test peptide)” value (HLA-A*0201 [1]) did it give?
Answer: 0.0001 ratio

Question: How did the “relative binding ratio (IC50 of standard peptide / IC50 of test peptide)” value (HLA-A*0201 [1]) turn out when LVDAEEYLV (Synthetic peptide) [HER2/neu A02 supermotif peptide, position 1017, 9 amino acids] was run?
Answer: 0.003 ratio

Question: With RLVHRDLAA [HER2/neu peptide, position 840, 9 amino acids] as the binder, how does the relative binding ratio (HLA-A*0201 [2]) read?
Answer: 0.0001 ratio to standard peptide

Question: CVARCPSGV (also called Her2/neu.596 (9-mer)) [HER2/neu peptide, position 596, 9 amino acids] was tested. Which relative binding ratio (HLA-A*0201 [3]) did it give?
Answer: 0.0004 ratio (IC50 of standard peptide / IC50 of test peptide)

Question: For RASPLTSII [HER2/neu peptide, position 647, 9 amino acids], which relative binding ratio (HLA-A*0201 [2]) is on record?
Answer: 0.0002 ratio to standard peptide

Question: With AMPNQAQMRI (also called Her2/neu.705 (10-mer)) [HER2/neu peptide, position 705, 10 amino acids] as the binder, how does the relative binding ratio (HLA-A*0201 [3]) read?
Answer: 0.0007 ratio (IC50 of standard peptide / IC50 of test peptide)
